{
  "source": "paper PMC13170167",
  "about": "“Magnetosome organelles are organized through interactions between McaA and McaB that alter the dynamics of the bacterial actin-like protein MamK” (mBio, 2026)",
  "proteins": {"B1": {"name": "MamK (untagged recombinant) (natural protein, Magnetospirillum magneticum AMB-1, UniProt Q2W8Q6 1-347, looked up)", "chain": "MSEGEGQAKNRLFLGIDLGTSHTAVMSSRGKKFLLKSVVGYPKDVIGLKLLGRPYVVGDEAFEMRSYLDIRYPLQDGVLSEISDRDIEVARHLLTHVVKSAEPGPNDEICAVIGVPARASAANKALLLKMAQEVVHTALVVSEPFMVGYGLDKLINTIIVDIGAGTTDICALKGTVPGPEDQVTLTKAGNYVDERLQNAILERHPELQMNVNVACAVKEQFSFVGTPTEVASFEFRAAGKPVRADVTEPVKIACEALMPDIIESIETLLRSFQPEYQATVLQNIVFAGGGSRIRGLAAYVKEKLRPFGDANVTCVKDPTFDGCRGALRLAEELPPQYWRQLGDVSGS", "notes": "MamK, bacterial actin-like protein of Magnetospirillum magneticum AMB-1; untagged; printed as 37.6 kDa; monomeric fractions were pooled; it forms filaments with ATP in polymerization buffer; also called purified MamK; MamK filaments; source: E. coli BL21, purified (ammonium sulfate precipitation, anion exchange, gel filtration)"}},
  "target": "the molecule itself",
  "assay": "co-sedimentation; pelleting assay; each protein at 1 µM in polymerization buffer (10 mM Tris-HCl pH 7.5, 25 mM KCl, 2 mM MgCl2, 1 mM DTT) with 1 mM ATP, 25°C for 10 min, 100,000 x g for 30 min at 4°C; SDS-PAGE of pellet and supernatant",
  "data": [
    {"protein": "B1", "values": [
      {"measurement": "binding result", "result": "binds"}
    ]}
  ]
}
